# Reference: article PMC9352680, “A comprehensive thermodynamic model for RNA binding by the Saccharomyces cerevisiae Pumilio protein PUF4”
# T1: PUF4 RNA-binding domain (Saccharomyces cerevisiae, UniProt P25339 537-888)
# T1 sequence: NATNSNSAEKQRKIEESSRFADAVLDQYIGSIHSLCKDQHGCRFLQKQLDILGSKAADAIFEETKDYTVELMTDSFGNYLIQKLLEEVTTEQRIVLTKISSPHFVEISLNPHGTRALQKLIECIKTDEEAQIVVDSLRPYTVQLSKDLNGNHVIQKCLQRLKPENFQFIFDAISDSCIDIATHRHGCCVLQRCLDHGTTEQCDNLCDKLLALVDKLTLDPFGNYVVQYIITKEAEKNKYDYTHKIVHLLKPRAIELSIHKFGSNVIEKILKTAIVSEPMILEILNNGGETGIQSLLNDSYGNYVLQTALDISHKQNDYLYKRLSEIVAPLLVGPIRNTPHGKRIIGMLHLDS
# B1: Ie_S2_P4E.1_K4.1_C4.1_H4.1_[+2TCC]_A4.1_F4.1_T4.1 (ssRNA)
# RNA: UUUGAUUAAUAUGAUAUCGUUCUUUCUUGUCCUAUAUUAUUCUUUCUCGAUAUCAUAUUAAUCUUU
# B2: Ie_S2_P4E.1_K4.1_C4.1_H4.1_[+2CTT]_A4.1_F4.1_T4.1 (ssRNA)
# RNA: UUUGAUUAAUAUGAUAUCGUUCUUUCUUGCUUUAUAUUAUUCUUUCUCGAUAUCAUAUUAAUCUUU
# B3: Ie_S2_P4E.1_K4.1_C4.1_H4.1_[+3CTT]_A4.1_F4.1_T4.1 (ssRNA)
# RNA: UUUGAUUAAUAUGAUAUCGUUCUUUCUUGUCUUAUAUUAUUCUUUCUCGAUAUCAUAUUAAUCUUU
# B4: Ib_S2_P3E.1_K3.1_C3.1_H3.1_A3.1_[A6C]_F3.1_[A8G]_T3.1 (ssRNA)
# RNA: UUUGAUUAAUAUGAUAUCGUUCUUUCUUGUAUCUGUUCUUUCUCGAUAUCAUAUUAAUCUUU
# B5: Ib_S2_P3E.1_K3.1_C3.1_H3.1_A3.1_[A6T]_F3.1_[A8G]_T3.1 (ssRNA)
# RNA: UUUGAUUAAUAUGAUAUCGUUCUUUCUUGUAUUUGUUCUUUCUCGAUAUCAUAUUAAUCUUU
# B6: Ie_S2_P4E.1_K4.1_C4.1_H4.1_[+1TCTCT]_A4.1_F4.1_T4.1 (ssRNA)
# RNA: UUUGAUUAAUAUGAUAUCGUUCUUUCUUUCUCUGUAUAUUAUUCUUUCUCGAUAUCAUAUUAAUCUUU
# B7: Ie_S2_P4E.1_K4.1_C4.1_H4.1_[+1TTCCT]_A4.1_F4.1_T4.1 (ssRNA)
# RNA: UUUGAUUAAUAUGAUAUCGUUCUUUCUUUUCCUGUAUAUUAUUCUUUCUCGAUAUCAUAUUAAUCUUU
# B8: Ie_S2_P4E.1_K4.1_C4.1_H4.1_[+1CCCTT]_A4.1_F4.1_T4.1 (ssRNA)
# RNA: UUUGAUUAAUAUGAUAUCGUUCUUUCUUCCCUUGUAUAUUAUUCUUUCUCGAUAUCAUAUUAAUCUUU
# B9: Ie_S2_P4E.1_K4.1_C4.1_H4.1_[+1CCTCT]_A4.1_F4.1_T4.1 (ssRNA)
# RNA: UUUGAUUAAUAUGAUAUCGUUCUUUCUUCCUCUGUAUAUUAUUCUUUCUCGAUAUCAUAUUAAUCUUU
# B10: Ie_S2_P4E.1_K4.1_C4.1_H4.1_[+1CCTC]_A4.1_F4.1_T4.1 (ssRNA)
# RNA: UUUGAUUAAUAUGAUAUCGUUCUUUCUUCCUCGUAUAUUAUUCUUUCUCGAUAUCAUAUUAAUCUUU
# B11: Ie_S2_P4E.1_K4.1_C4.1_H4.1_[+2TTCC]_A4.1_F4.1_T4.1 (ssRNA)
# RNA: UUUGAUUAAUAUGAUAUCGUUCUUUCUUGUUCCUAUAUUAUUCUUUCUCGAUAUCAUAUUAAUCUUU
# B12: Ie_S2_P4E.1_K4.1_C4.1_H4.1_[+2CCCT]_A4.1_F4.1_T4.1 (ssRNA)
# RNA: UUUGAUUAAUAUGAUAUCGUUCUUUCUUGCCCUUAUAUUAUUCUUUCUCGAUAUCAUAUUAAUCUUU
# B13: Ie_S2_P4E.1_K4.1_C4.1_H4.1_[+1CCCT]_A4.1_F4.1_T4.1 (ssRNA)
# RNA: UUUGAUUAAUAUGAUAUCGUUCUUUCUUCCCUGUAUAUUAUUCUUUCUCGAUAUCAUAUUAAUCUUU
# B14: Ie_S2_P4E.1_K4.1_C4.1_H4.1_[+2CTCT]_A4.1_F4.1_T4.1 (ssRNA)
# RNA: UUUGAUUAAUAUGAUAUCGUUCUUUCUUGCUCUUAUAUUAUUCUUUCUCGAUAUCAUAUUAAUCUUU
# B15: Ie_S2_P4E.1_K4.1_C4.1_H4.1_[+2TCTC]_A4.1_F4.1_T4.1 (ssRNA)
# RNA: UUUGAUUAAUAUGAUAUCGUUCUUUCUUGUCUCUAUAUUAUUCUUUCUCGAUAUCAUAUUAAUCUUU
# B16: Ie_S2_P4E.1_K4.1_C4.1_H4.1_[+2C]_A4.1_F4.1_T4.1 (ssRNA)
# RNA: UUUGAUUAAUAUGAUAUCGUUCUUUCUUGCUAUAUUAUUCUUUCUCGAUAUCAUAUUAAUCUUU
# B17: Ie_S2_P4E.1_K4.1_C4.1_H4.1_[+2CT]_A4.1_F4.1_T4.1 (ssRNA)
# RNA: UUUGAUUAAUAUGAUAUCGUUCUUUCUUGCUUAUAUUAUUCUUUCUCGAUAUCAUAUUAAUCUUU
# B18: Ie_S2_P4E.1_K4.1_C4.1_H4.1_[+2TC]_A4.1_F4.1_T4.1 (ssRNA)
# RNA: UUUGAUUAAUAUGAUAUCGUUCUUUCUUGUCUAUAUUAUUCUUUCUCGAUAUCAUAUUAAUCUUU
# B19: Ie_S2_P4E.1_K4.1_C4.1_H4.1_[+3TT]_A4.1_F4.1_T4.1 (ssRNA)
# RNA: UUUGAUUAAUAUGAUAUCGUUCUUUCUUGUUUAUAUUAUUCUUUCUCGAUAUCAUAUUAAUCUUU
# Molecular target: T1, PUF4 RNA-binding domain
# Assay: Mg; RNA-MaP; 20 mM Na-HEPES pH 7.4, 30 mM KOAc, 0.75 mM MgCl2, 0.1% Tween-20, 5% glycerol, 0.1 mg/mL BSA, 2 mM DTT; 25 C; 0.0125-409.6 nM protein
# Conditions: tags: N-His6-TEV cleaved; C-SNAP kept, Cy3B-labelled; label: tethered on chip by stalled RNA polymerase
row,Binder,Kd
1,B1,10.9 nM
2,B2,111 nM
3,B3,14.4 nM
4,B4,14.7 nM
5,B5,37.8 nM
6,B6,0.249 nM
7,B7,0.215 nM
8,B8,0.12 nM
9,B9,0.166 nM
10,B10,5.67 nM
11,B11,17.9 nM
12,B12,127 nM
13,B13,0.188 nM
14,B14,47.4 nM
15,B15,16.8 nM
16,B16,81.5 nM
17,B17,198 nM
18,B18,27.8 nM
19,B19,34.1 nM
